Publication PMC11638070 (Nature Structural & Molecular Biology, 2024)
Changes are numbered by the printed parent chain. Names may count otherwise.

How the values were obtained:
[1] = target: T1, mitochondrial heat shock protein 60 V72I (mtHsp60^V72I) (human, UniProt P10809 53-573, V72I); assay: SEC-MALS; mtHsp60 samples 17 µM monomer, without ATP; Shodex Protein KW-804, room temperature, 20 mM HEPES pH 7.5, 100 mM KCl, 10 mM MgCl2; heptamer to monomers; conditions: both partners purified
[2] = target: T1, mitochondrial heat shock protein 60 …; assay: cryo-EM structure; mtHsp60^V72I 0.2-0.6 mg/ml in ATPase buffer without detergent, 1 mM ATP; conditions: both partners purified
mtHsp60 Y201A = mtHsp60 Y201A (human, UniProt P10809 53-573, Y201A); assay: SEC; analytical SEC of each protein alone (mtHsp60 samples 17 µM monomer); Superdex 200 Increase 3.2/300, room temperature, 20 mM HEPES pH 7.5, 100 mM KCl, 10 mM MgCl2; conditions: both partners purified
[3] = target: the molecule itself; assay: as above

B1: mitochondrial heat shock protein 60 V72I (mtHsp60^V72I) (natural protein)
chain: AKDVKFGADARALMLQGVDLLADAVAVTMGPKGRTVIIEQSWGSPKVTKDGVTVAKSIDLKDKYKNIGAKLIQDVANNTNEEAGDGTTTATVLARSIAKEGFEKISKGANPVEIRRGVMLAVDAVIAELKKQSKPVTTPEEIAQVATISANGDKEIGNIISDAMKKVGRKGVITVKDGKTLNDELEIIEGMKFDRGYISPYFINTSKGQKCEFQDAYVLLSEKKISSIQSIVPALEIANAHRKPLVIIAEDVDGEALSTLVLNRLKVGLQVVAVKAPGFGDNRKNQLKDMAIATGGAVFGEEGLTLNLEDVQPHDLGKVGEVIVTKDDAMLLKGKGDKAQIEKRIQEIIEQLDVTTSEYEKEKLNERLAKLSDGVAVLKVGGTSDVEVNEKKDRVTDALNATRAAVEEGIVLGGGCALLRCIPALDSLTPANEDQKIGIEIIKRTLKIPAMTIAKNAGVEGSLIVEKIMQSSSEVGYDAMAGDFVNMVEKGIIDPTKVVRTALLDAAGVASLLTTAEVVVTEIPKEEKDPGMGAMGGMGGGMGGGMF
modifications: heptamer in apo state; ATP/Mg2+/K+ gives double-ring tetradecamer; SNA tag scar left out / heptamer in apo state; ATP/Mg2+/K+ gives double-ring tetradecamer; SNA tag scar left out
- stoichiometry N [1]: 7
- stoichiometry N [2]: 14

B2: mtHsp60 Y201A (natural protein)
chain: B1 chain with I72V, Y201A
modifications: at least partly heptameric by SEC; mature numbering + 26 = precursor; SNA tag scar left out / at least partly heptameric by SEC; mature numbering + 26 = precursor; SNA tag scar left out
- stoichiometry N (mtHsp60 Y201A): 7

B3: mitochondrial malate dehydrogenase labelled with fluorescein isothiocyanate (FITC-mtMDH) (enzyme, human, UniProt P40926 25-338, looked up)
chain: AKVAVLGASGGIGQPLSLLLKNSPLVSRLTLYDIAHTPGVAADLSHIETKAAVKGYLGPEQLPDCLKGCDVVVIPAGVPRKPGMTRDDLFNTNATIVATLTAACAQHCPEAMICVIANPVNSTIPITAEVFKKHGVYNPNKIFGVTTLDIVRANTFVAELKGLDPARVNVPVIGGHAGKTIIPLISQCTPKVDFPQDQLTALTGRIQEAGTEVVKAKAGAGSATLSMAYAGARFVFSLVDAMNGKEGVVECSFVKSQETECTYFSTPLLLGKKGIEKNLGIGKVSSFEEKMISDAIPELKASIKKGEDFVKTLK
modifications: FITC (fluorescein isothiocyanate) label, sites not stated
notes: mitochondrial malate dehydrogenase (mtMDH), human; bacterial expression vector Addgene plasmid no; 38792; Used folded (elutes as a dimer) or chemically denatured (6 M guanidine HCl, 10 mM DTT, 1 h); the two states are told apart by the assays; also called FITC-mtMDH^denat (guanidine-denatured form); source: E. coli Rosetta 2(DE3)pLysS, purified (HisTrap, SEC), labelled with FITC
- stoichiometry N [3]: 2
